Experiment [1] concerns the target T1, commercial A-beta oligomer (purchased from SynAging) (human).
T1 construct: also called commercial oligomer
Nature of the experiment: SPR (MASS-1), antibody immobilized, commercial oligomer injected. The protocol:
(§1) All surface plasmon resonance (SPR) measurements were performed using a Molecular Affinity Screening System (MASS-1) (Sierra Sensors GmbH, Hamburg, Germany), an analytical biosensor that employs high intensity laser light and high speed optical scanning to monitor binding interactions in real time. In SPR direct binding assays, antibodies are covalently immobilized on individual flow cells of a High Amine Capacity (HAC) sensorchip (Sierra Sensors GmbH, Hamburg, Germany) and ligands flowed over the surface (BSA-conjugated peptides, A-beta42 Monomer and A-beta42 Oligomer). Each sample was diluted and injected in duplicate over the immobilized peptide and BSA reference surfaces, followed by injection of running buffer only for the dissociation phase. After every analytical cycle, the sensor chip surfaces were regenerated. Sensorgrams were double-referenced by subtracting out binding from the BSA reference surfaces and blank running buffer injections, and binding response report points collected in the dissociation phase.

Experiment [2] concerns the target T2, cyclo (CGHHQKG) (SEQ ID NO: 2)-BSA (cyclized peptide, cyclo(CGHHQKG); conjugated to BSA).
T2 construct: also called cyclic peptide-BSA; cyclo-BSA peptide
The experiment is described as follows: SPR multi-cycle kinetics, purified IgG4 vs cyclic peptide-BSA.

Experiment [3] addresses T3, linear (CGHHQKG) (SEQ ID NO: 2) peptide-BSA (linear (non-cyclized) peptide; conjugated to BSA).
T3 construct: also called linear peptide-BSA; linear-BSA peptide
Nature of the experiment: SPR multi-cycle kinetics, purified IgG4 vs linear peptide-BSA.

The target in experiment [4] is T4, A-beta42 Oligomer (oligomer prep, made in F12 medium) (human).
T4 construct: also called synthetic AβO
Nature of the experiment: SPR (MASS-1), antibody immobilized, A-beta42 oligomer injected. The method, then: as §1

For experiment [5], the target named is T3, linear (CGHHQKG) (SEQ ID NO: 2) …. Nature of the experiment: SPR single cycle kinetics; IgG4 in cell supernatant captured on Protein A chip; peptide-BSA injected at four rising concentrations, 0.025 to 0.675 nM [Cont.]. The method, then:
(§2) A four-point, three-fold dilution range from 0.025 nM to 0.675 nM peptide-BSA without regeneration between each concentration was used.

Experiment [6] addresses T2, cyclo (CGHHQKG) (SEQ ID NO: 2)-BSA. Described as above. The protocol:
as §2

T4 sequence (peptide, as listed by the source): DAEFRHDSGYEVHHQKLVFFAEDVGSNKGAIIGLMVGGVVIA
T1 sequence (peptide, as listed by the source): as above
T3 sequence (P02769 25-607 limits assumed): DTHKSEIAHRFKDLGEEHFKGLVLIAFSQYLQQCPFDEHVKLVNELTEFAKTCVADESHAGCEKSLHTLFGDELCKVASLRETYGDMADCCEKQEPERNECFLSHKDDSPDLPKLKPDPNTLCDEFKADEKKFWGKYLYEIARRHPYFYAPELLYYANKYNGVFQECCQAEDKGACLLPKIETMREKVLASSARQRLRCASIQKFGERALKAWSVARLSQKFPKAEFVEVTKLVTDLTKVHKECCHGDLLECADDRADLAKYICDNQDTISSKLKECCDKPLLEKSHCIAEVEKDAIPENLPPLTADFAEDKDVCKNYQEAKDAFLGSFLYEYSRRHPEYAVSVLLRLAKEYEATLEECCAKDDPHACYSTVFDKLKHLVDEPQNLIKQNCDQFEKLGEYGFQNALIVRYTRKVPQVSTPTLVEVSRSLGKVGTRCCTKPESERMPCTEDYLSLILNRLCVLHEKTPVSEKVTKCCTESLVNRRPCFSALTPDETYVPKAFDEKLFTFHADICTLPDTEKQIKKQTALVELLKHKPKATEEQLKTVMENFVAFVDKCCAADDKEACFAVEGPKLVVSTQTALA
T2 sequence (P02769 25-607 limits assumed): as above

B1: parental antibody, PMN310 humanized antibody variant VH2/Vk5 (human IgG4 S241P / kappa) (antibody, V domains shown)
VH: QVQLVQSGAEVKKPGASVKMSCKASGYSFTSYWINWVKQRPGQGLEWIGDVHPGRGVSTYNAKFKSRATLTLDTSISTAYMELSSLRSEDTAVYYCSRSHGNTYWFFDVWGQGTTVTVSS
VL: DVLMTQSPLSLPVTLGQPASISCRSSQSIVHSNGNTYLEWYQQRPGQSPRLLIYKVSNRFSGVPDRFSGSGSGTDFTLKISRVEAEDVGVYYCFQGSHVPFTFGQGTKLEIKR
notes: also called parental huPMN310; huPMN310
In general, Kd refers to the equilibrium constant for the complex coming apart. What is called koff is the rate constant with which the complex falls apart. Read a low koff as slow dissociation. Usually kon stands for the rate constant with which the complex forms. A low value points to slower complex formation. Turning to B1, the “Binding to commercial oligomer (BRU)” value in experiment [1] was determined as 3 BRU. Also, in experiment [2], binding was characterised by a dissociation constant (Kd) of 0.0274 nM, the off-rate constant (koff) turned out to be 0.000155 s⁻¹ and the kon came out at 5.65e+06 M⁻¹ s⁻¹. In addition, in experiment [3], the affinity, expressed as Kd, was 0.103 nM; the koff was determined as 0.000155 s⁻¹; the association rate constant (kon) came to 1.5e+06 M⁻¹ s⁻¹. In addition, in experiment [4], the “Binding to oligomer prep (BRU)” value worked out at 85.6 BRU.

B2: Clone 4 (affinity matured VH with parental Vk, human IgG4 S241P / kappa) (antibody, V domains shown)
VH: QVQLVQSGAEVKKPGASVKMSCKASGYSFTSYWINWVKQRPGQGLEWIGDVHPGRGVSTYNAKFKSRATLTLDTSISTAYMELSSLRSEDTAVYYCARVSPTGYWFFDVWGQGTTVTVSS
VL: DVLMTQSPLSLPVTLGQPASISCRSSQSIVHSNGNTYLEWYQQRPGQSPRLLIYKVSNRFSGVPDRFSGSGSGTDFTLKISRVEAEDVGVYYCFQGSHVPFTFGQGTKLEIKR
In the case of B2, the “Binding to commercial oligomer (BRU)” value in experiment [1] came out at 22.6 BRU. Moreover, in experiment [2], the Kd was 0.0235 nM, the dissociation rate constant (koff) was 6.9e-05 s⁻¹ and the kon was found to be 2.94e+06 M⁻¹ s⁻¹. In experiment [4], the “Binding to oligomer prep (BRU)” value worked out at 57.3 BRU.

B3: Clone 14 (affinity matured VH with parental Vk, human IgG4 S241P / kappa) (antibody, V domains shown)
VH: QVQLVQSGAEVKKPGASVKMSCKASGYSFTSYWINWVKQRPGQGLEWIGDVHPGRGVSTYNAKFKSRATLTLDTSISTAYMELSSLRSEDTAVYYCAKSDASGYWFFDVWGQGTTVTVSS
VL: DVLMTQSPLSLPVTLGQPASISCRSSQSIVHSNGNTYLEWYQQRPGQSPRLLIYKVSNRFSGVPDRFSGSGSGTDFTLKISRVEAEDVGVYYCFQGSHVPFTFGQGTKLEIKR
Take B3: the “Binding to commercial oligomer (BRU)” value in experiment [1] amounted to 22.3 BRU. Further, in experiment [2], binding was put at a Kd of 0.0289 nM, the koff is 0.000152 s⁻¹ and the kon came to 5.26e+06 M⁻¹ s⁻¹. Also, the “Binding to oligomer prep (BRU)” value in experiment [4] turned out to be 30.8 BRU.

B4: Clone 13 (antibody, human IgG4 S228P, kappa, V domains shown)
VH: QVQLVQSGAEVKKPGASVKMSCKASGYSFTSYWINWVKQRPGQGLEWIGDVHPGRGVSTYNAKFKSRATLTLDTSISTAYMELSSLRSEDTAVYYCARSVGDTYWFYDVWGQGTTVTVSS
VL: DVLMTQSPLSLPVTLGQPASISCRSSQSIVHSNGNTYLEWYQQRPGQSPRLLIYKVSNRFSGVPDRFSGSGSGTDFTLKISRVEAEDVGVYYCFQGSHVPFTFGQGTKLEIKR
In the case of B4, the binding result in experiment [5] and in experiment [6] was “no binding” in each case.

B5: Clone 5 (affinity matured VH with parental Vk, human IgG4 S241P / kappa) (antibody, V domains shown)
VH: QVQLVQSGAEVKKPGASVKMSCKASGYSFTSYWINWVKQRPGQGLEWIGDVHPGRGVSTYNAKFKSRATLTLDTSISTAYMELSSLRSEDTAVYYCARGALSPYWFFDVWGQGTTVTVSS
VL: DVLMTQSPLSLPVTLGQPASISCRSSQSIVHSNGNTYLEWYQQRPGQSPRLLIYKVSNRFSGVPDRFSGSGSGTDFTLKISRVEAEDVGVYYCFQGSHVPFTFGQGTKLEIKR
Consider B5, for which the “Binding to commercial oligomer (BRU)” value in experiment [1] is 32.3 BRU. Further, in experiment [2], the Kd worked out at 0.0647 nM, the off-rate (koff) came out at 0.000132 s⁻¹ and the kon is 2.04e+06 M⁻¹ s⁻¹. In addition, in experiment [3], the Kd came out at 0.0924 nM, the koff was 0.000138 s⁻¹ and the kon was 1.49e+06 M⁻¹ s⁻¹. Besides, in experiment [4], the “Binding to oligomer prep (BRU)” value is 223 BRU.

The record behind these values is patent US20230141177A1 (UNIVERSITY OF BRITISH COLUMBIA, published 2023).
